Molecular target: prefusion conformation-stabilized SARS-CoV-2 spike ectodomain (S2P_(ecto)) with AviTag and 8x-His tag (SARS-CoV-2) (UniProt P0DTC2)
Test: ELISA

In the case of “COV2-2130 (human mAb, recombinant IgG1) (antibody)”, the percent inhibition of hACE2 binding to S2P (ecto) at 500 ng/mL is reported as 100%.

From article PMC7584396
